Patent publication US20160137713A1 (HANALL BIOPHARMA, published 2016)
Numbering of substitutions follows the chain as printed.

Columns and labels:
rat FcRn on Rat-2 cells = molecular target: T1, rat FcRn on Rat-2 cells (rat, UniProt P13599 23-366; P07151 21-119); assay: FACS on rat FcRn-expressing Rat-2 cells at pH 6.0 and pH 7.4, FITC anti-human IgG goat antibody; MFI relative to hIgG
T1 construct: whole, on cells
T1 sequence (looked up): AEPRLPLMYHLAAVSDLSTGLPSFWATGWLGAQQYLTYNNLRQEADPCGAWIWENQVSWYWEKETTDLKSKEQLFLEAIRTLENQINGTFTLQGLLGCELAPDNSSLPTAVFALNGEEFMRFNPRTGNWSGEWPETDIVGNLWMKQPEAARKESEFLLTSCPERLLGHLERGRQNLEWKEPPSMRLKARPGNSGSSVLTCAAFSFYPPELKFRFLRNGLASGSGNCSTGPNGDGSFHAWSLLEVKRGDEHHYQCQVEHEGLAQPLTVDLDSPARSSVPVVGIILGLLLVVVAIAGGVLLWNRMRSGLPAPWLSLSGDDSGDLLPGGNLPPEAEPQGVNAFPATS
T1 sequence (b2m, looked up): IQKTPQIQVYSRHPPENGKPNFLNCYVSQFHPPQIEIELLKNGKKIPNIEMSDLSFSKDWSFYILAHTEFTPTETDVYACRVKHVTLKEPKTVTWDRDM
Experimental: Rat-2 (KCTC #AC28203), rat fibroblasts stably expressing rat FcRn, were cultured in 10% FBS DMEM medium, and then detached from the culture plate by trypsin treatment. The cells were washed three times with cold binding buffer (PBS pH 6.0, 10 mM EDTA), and then diluted in binding buffer at a concentration of 10⁵ cells/ml. 100 μl of the cell dilution was dispensed into each 1.5-ml tube in such a manner that each tube contained 10⁴ cells, and 1 μl of HL161 antibody (1 mg/ml) was added to the dispensed cells. Next, the cells were incubated on ice. As control antibodies, 1 μl of each of mouse 1G3 antibody and human IgG antibody (Abcam, cat#. 409120), which bind to rat FcRn, was used. The 1G3 antibody was produced and purified from mouse hybridoma cells (ATCC CRL2434). The cells were recovered by centrifugation at 4° C. and 4000 rpm for 5 minutes, after which the cells were washed once with binding buffer and resuspended in 100 μl of binding buffer. As FITC-conjugated secondary antibody, 1 μl of anti-human IgG goat antibody (Invitrogen, cat#. A11013) was added to the cells. In the case of the experiment using anti-rat FcRn mouse antibody, the anti-mouse IgG goat antibody (Invitrogen, cat#. A11001) was incubated with the cells on ice for 1 hour, and then the cells were recovered by centrifugation at 4° C. and 4000 rpm for 5 minutes, washed once with binding buffer, resuspended in 400 μl of binding buffer and analyzed by FACS to examine the cross-reactivity of the HL161 antibodies with rat FcRn (see FIG. 4). An experiment at a pH of 7.4 was performed using binding buffer at a pH of 7.4 in the same manner as the experiment using binding buffer at a pH of 6.0. The degree of the binding of each antibody to rat FcRn was presented as relative MFI based on human IgG.

[1] = molecular target: T2, mouse FcRn on 3T3-L1 cells (mouse, UniProt Q61559 22-365; P01887 21-119); assay: FACS on mouse FcRn-expressing 3T3-L1 cells at pH 6.0 and pH 7.4, FITC anti-human IgG goat antibody; MFI relative to hIgG
T2 construct: whole, on cells; also called NIH3T3L1
T2 sequence (looked up): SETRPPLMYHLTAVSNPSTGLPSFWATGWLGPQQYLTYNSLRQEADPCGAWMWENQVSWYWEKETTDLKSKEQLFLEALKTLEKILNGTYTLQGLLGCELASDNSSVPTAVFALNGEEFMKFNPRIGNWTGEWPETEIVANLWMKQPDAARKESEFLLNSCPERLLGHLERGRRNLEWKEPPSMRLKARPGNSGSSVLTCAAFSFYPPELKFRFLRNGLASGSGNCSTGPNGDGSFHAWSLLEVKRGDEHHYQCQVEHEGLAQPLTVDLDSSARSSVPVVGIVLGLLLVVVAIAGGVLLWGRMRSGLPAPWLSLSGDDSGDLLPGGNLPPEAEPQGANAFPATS
T2 sequence (b2m, looked up): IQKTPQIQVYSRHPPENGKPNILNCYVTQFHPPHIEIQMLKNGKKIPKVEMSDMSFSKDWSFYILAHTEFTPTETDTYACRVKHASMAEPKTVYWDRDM
Experimental: 3T3-L1 cells stably expressing mouse FcRn were cultured in 10% FCS DMEM medium, and then detached from the culture plate by trypsin treatment. The cells were washed three times with cold binding buffer (PBS, pH 6.0 10 mM EDTA), and then diluted in binding buffer at a concentration of 10⁵ cells/ml. 100 μl of the cell dilution was dispensed into each 1.5-ml tube in such a manner that each tube contained 10⁴ cells, and 1 μl of HL161 antibody (1 mg/ml) was added to the dispensed cells. Next, the cells were incubated on ice. As control antibodies, 1 μl of each of rabbit antibody (Santacruz, sc-66893) and human IgG (Abcam, cat#. 409120), which bind to mouse FcRn, was used. The cells were recovered by centrifugation at 4° C. and 4000 rpm for 5 minutes, after which the cells were washed once with binding buffer and resuspended in 100 μl of binding buffer. As FITC-conjugated secondary antibody, 1 μl of anti-human IgG goat antibody (Invitrogen, Cat*. A11013) was added to the cells. In the case of the experiment using anti-mouse FcRn rabbit antibody, the anti-rabbit antibody was incubated with the cells on ice for 1 hour, and then the cells were recovered by centrifugation at 4° C. and 700 g for 5 minutes, washed once with binding buffer, resuspended in 400 ul of binding buffer and analyzed by FACS to examine the cross-reactivity of the HL161 antibodies with mouse FcRn (see FIG. 4). An experiment at a pH of 7.4 was performed using binding buffer at a pH of 7.4 in the same manner as the experiment using binding buffer at a pH of 6.0. The degree of the binding of each antibody to mouse FcRn was presented as relative MFI based on human IgG.

soluble human FcRn [2] = molecular target: T3, soluble human FcRn (human, UniProt P55899 24-297; P61769 21-119); assay: SPR, shFcRn immobilised, pH 7.4
T3 construct: extracellular domain;mature; Non-covalent heterodimer secreted by 293 cells, purified on IgG Sepharose; also called shFcRn; soluble FcRn
Experimental: (§1) Measurement of the binding ability of antibody by SPR was performed by immobilizing shFcRn as a ligand onto a Proteon GLC chip (Bio-Rad) and measuring affinity.
(§2) The analysis of ligand and analyte was performed using a Proteon GLC chip, and the interaction was analyzed at a pH of 6.0 and a pH of 7.4. Immobilization of the ligand was activated by injecting a 1:1 mixture of 1×EDAC (EDC) and 1× Surfo-NHS for 5 minutes. shFcRn was diluted in 10 mM sodium acetate (pH 4.5) at a concentration of 25 μg/ml and added to the ligand at a flow rate of 30 μl/min for 5 minutes. […] The analyte antibody was allowed to flow on the immobilized chip at a flow rate of 30 μl/min. […] The association time of the analyte antibody was 240 seconds, and the dissociation time was 600 seconds. Regeneration of the chip was performed by injecting 10 mM glycine (pH 2.5) at a flow rate of 100 μl/min for 18 seconds. Based on sensorgrams resulting from six concentrations of the analyte, kinetics analysis was performed using Proteon XPR36 software.

[3] = molecular target: T4, human FcRn on HEK293 cells (human, UniProt P55899 24-365; P61769 21-119); assay: FACS competition on hFcRn HEK293 cells at pH 6.0; remaining binding of 100 nM Alexa488-labeled hIgG1 (m14) with 1000 nM competitor antibody, percent of the tube without competitor
T4 construct: whole, on cells; also called hFcRn
Experimental: (§3) In stable HEK293 cells expressing human FcRn, the blocking of the antibody against FcRn was analyzed by FACS. The antibody was diluted in binding buffer (PBS pH 6.0, 10 mM EDTA) at concentrations of 2,000 nM, […] to make 50 μl of dilutions, which were dispensed into tubes. […] Stable HEK293 cells were diluted in binding buffer at a concentration of 2,500,000 cells/ml, and 40 μl of the cell dilution was added to each of the labeled antibody-containing tubes. Thus, a final volume of 100 μl contained 100,000 cells, 100 nM labeled antibody and 1000 nM, 500 nM or 250 nM competitor antibody. The cells were washed once with 150 μl of buffer (pH 6.0), and pellets were obtained therefrom and resuspended in 150 μl of buffer having pH difference. The suspension was transferred into a tube for FACS analysis. The cells were analyzed by FACS using BD FACSDiva™ v6.1.3 software (BD Bioscience). The results of the analysis were expressed as mean fluorescence intensity (MFI).
(§4) The MFI of the test group was processed after subtracting the MFI (background signal) measured in cells alone.

[4] = molecular target: T4, human FcRn on HEK293 cells; assay: FACS on hFcRn-overexpressing HEK293 cells at pH 7.4, Alexa488 anti-human goat antibody; MFI relative to hIgG1
Experimental: (§5) In stable HEK293 cells expressing human FcRn, the degrees of binding of antibody to FcRn at various pHs were analyzed using a FACS system. Specifically, 100,000 stable HEK293 cells were washed with PBS and centrifuged in a table top microcentrifuge at 4500 rpm for 5 minutes to obtain pellets. 1 μg of antibody was added to 100 μl of pH 6.0 or pH 7.4PBS/10 mM EDTA. The cell pellets were resuspended in 100 μl of the antibody solution and incubated on ice for 60 minutes. The cells were washed once with 150 μl of buffer having pH difference, and then pellets were obtained therefrom. Alexa488-labeled anti-human antibody goat antibody (1 mg/ml) was diluted at 1:20 in buffer having pH difference, and the pellets were resuspended in 100 μl of the buffer, and then cultured on ice for 60 minutes. The cells were washed once with 150 μl of buffer having pH difference, and pellets were obtained therefrom and resuspended in buffer having pH difference. The suspension was transferred into a tube for FACS analysis. These cells were analyzed by FACS using BD FACSDiva™ v6.1.3 software (BD Bioscience). The results of the analysis were expressed as Mean Fluorescence Intensity (MFI) (see FIG. 2).

[5] = molecular target: T4, human FcRn on HEK293 cells; assay: FACS competition on hFcRn HEK293 cells at pH 6.0; remaining binding of 100 nM Alexa488-labeled hIgG1 (m14) with 250 nM competitor antibody, percent of the tube without competitor
Experimental: as §3, §4

[6] = molecular target: T4, human FcRn on HEK293 cells; assay: FACS competition on hFcRn HEK293 cells at pH 6.0; remaining binding of 100 nM Alexa488-labeled hIgG1 (m14) with 500 nM competitor antibody, percent of the tube without competitor
Experimental: as §3, §4

[7] = molecular target: T4, human FcRn on HEK293 cells; assay: FACS on hFcRn-overexpressing HEK293 cells at pH 6.0, Alexa488 anti-human goat antibody; MFI relative to hIgG1
Experimental: as §5

soluble human FcRn [8] = molecular target: T3, soluble human FcRn; assay: SPR, shFcRn immobilised, pH 6.0
Experimental: as §1, §2

T4 sequence (P55899 24-365, chain 1 of 2): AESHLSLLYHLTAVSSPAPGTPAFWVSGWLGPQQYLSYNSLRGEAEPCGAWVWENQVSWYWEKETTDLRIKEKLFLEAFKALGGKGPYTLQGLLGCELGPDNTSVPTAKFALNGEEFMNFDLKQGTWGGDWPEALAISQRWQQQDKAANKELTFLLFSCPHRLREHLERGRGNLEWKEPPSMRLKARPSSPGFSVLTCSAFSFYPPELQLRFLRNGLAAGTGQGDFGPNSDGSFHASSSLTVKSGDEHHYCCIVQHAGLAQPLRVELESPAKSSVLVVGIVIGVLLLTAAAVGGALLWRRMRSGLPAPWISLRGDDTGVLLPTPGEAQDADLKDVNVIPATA
T4 sequence (P61769 21-119, chain 2 of 2): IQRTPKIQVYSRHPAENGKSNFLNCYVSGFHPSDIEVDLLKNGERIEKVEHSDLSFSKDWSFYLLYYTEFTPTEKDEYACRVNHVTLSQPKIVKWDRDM
T3 sequence (P55899 24-297, chain 1 of 2): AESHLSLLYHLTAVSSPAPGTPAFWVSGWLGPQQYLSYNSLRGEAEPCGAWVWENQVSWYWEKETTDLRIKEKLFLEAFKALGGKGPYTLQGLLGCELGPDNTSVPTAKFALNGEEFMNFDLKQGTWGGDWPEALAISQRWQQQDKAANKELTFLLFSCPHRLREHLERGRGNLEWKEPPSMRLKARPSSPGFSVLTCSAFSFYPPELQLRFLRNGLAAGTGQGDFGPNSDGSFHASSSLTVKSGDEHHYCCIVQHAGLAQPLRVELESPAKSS
T3 sequence (P61769 21-119, chain 2 of 2): as the sequence (P61769 21-119, chain 2 of 2) above

B1: HL161-1A (antibody, V domains shown)
VH: QVQLVQSGGGLVQPGRSLRLSCAASGFSFGEYGMHWVRQAPGKGLEWVSGVSWNSGSIAYADSVRGRFTISRDNSKNSLYLQMNSLRAEDTAVYYCARGRSMDVWGQGTTVTVSS
VL: NFMLTQPASVSGSPGQTITISCTGSSSDVGGYNYVSWYQQHPGKAPQLIIYDVTKRPSGVSNRFSGSKSGNSASLTISGLQAEDEADYYCSSYSSSTFYVFGTGTKVTVL
notes: Whole human IgG from pNATAB vectors
Does B1 bind (rat FcRn on Rat-2 cells)?
Result: binds

Does B1 bind [1]?
Result: binds

B2: HL161-11G (antibody, V domains shown)
VH: QMQLVESGGGVVQPGRSLRLSCVGSGFNFNSYGIHWVRQAPGKGLEWVGGIFYDGSQVKYADSVKGRVSISRDNSKNTAYLQMNSLRAEDTAVYYCARRNLLDYWGQGTVVTVSS
VL: B1 VL with T17S
notes: Whole human IgG from pNATAB vectors; also called h1161-11G
Does B2 bind (rat FcRn on Rat-2 cells)?
Result: binds

Does B2 bind [1]?
Result: binds

B3: HL161-10E (antibody, V domains shown)
VH: QVQLVESGGGLVQPGGSLRLSCAASGFRFSNFAMTWVRQAPGKGLEWVSTLSGSGGSIHHADSVKGRFTISRDNSKNTLYLQMNSLRAEDTAVYYCAKGPLRGQPAYLDPWGQGTLVTVSS
VL: SYELTQPLSVSMSPGQTARITCSGDALSKQYASWYQLKPGQAPVVVMYKDTERPSGIPDRFSGSSSGTTVTLTISGVQAEDEADYYCQSITDKSGTDVIFGGGTKLTVL
notes: as for B1
How did the kon (soluble human FcRn [2]) turn out when B3 was run?
Its kon is 310000 M⁻¹ s⁻¹.

B4: HL161-6C (antibody, V domains shown)
VH: QVQLVESGAEVKKPGASVKVSCKASGYTFTSYYMHWVRQAPGQGLEWMGIINPSGGSTSYAQKFQGRVTMTRDTSTSTVYMELSSLRSEDTAVYYCARGGGAFDIWGQGTMVTVSS
VL: DIQMTQSPSSVSASVGDRVTITCRASQGISNWVAWYQQKPGKAPKLLIYAASSLQSGVPSRFSGSGSGTDFTLTISSLQPEDFAIYYCQQGHSFPYTFGQGTKVEIK
notes: as for B1
What does the source list for B4?
Relative MFI(%) at 1000nM [3]: 81.1%; koff (soluble human FcRn [2]): 0.0031 s⁻¹; kon (soluble human FcRn [2]): 470000 M⁻¹ s⁻¹; Relative MFI (Fold) [4]: 1.3 fold; Relative MFI(%) at 250nM [5]: 88.2%; Relative MFI(%) at 500nM [6]: 84.7%; Relative MFI (Fold) [7]: 0.9 fold; koff (soluble human FcRn [8]): 0.0019 s⁻¹; kon (soluble human FcRn [8]): 1e+06 M⁻¹ s⁻¹
